According to PMC3433420:
Values joined by “and” are separate entries in the source; they are usually repeats but may differ in a detail not shown here. Identical values can stand only once. Like-named read-outs stand apart in the source and are kept apart here.

Assays:
[1] = target: SYK-N (Homo sapiens) (UniProt P43405); details: cited from earlier work
[2] = target: SYK-NC (Homo sapiens) (UniProt P43405); details: cited from earlier work
[3] = target: GRB7 (Homo sapiens) (UniProt Q14451); details: cited from earlier work
Sequence of GRB7 (Homo sapiens) (Q14451 426-532): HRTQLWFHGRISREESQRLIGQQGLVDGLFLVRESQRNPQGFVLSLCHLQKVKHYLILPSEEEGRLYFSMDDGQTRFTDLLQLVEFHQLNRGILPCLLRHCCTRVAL

[4] = target: PIK3R1-N (Homo sapiens) (UniProt P27986); details: cited from earlier work
Sequence of PIK3R1-N (Homo sapiens) (P27986 328-723): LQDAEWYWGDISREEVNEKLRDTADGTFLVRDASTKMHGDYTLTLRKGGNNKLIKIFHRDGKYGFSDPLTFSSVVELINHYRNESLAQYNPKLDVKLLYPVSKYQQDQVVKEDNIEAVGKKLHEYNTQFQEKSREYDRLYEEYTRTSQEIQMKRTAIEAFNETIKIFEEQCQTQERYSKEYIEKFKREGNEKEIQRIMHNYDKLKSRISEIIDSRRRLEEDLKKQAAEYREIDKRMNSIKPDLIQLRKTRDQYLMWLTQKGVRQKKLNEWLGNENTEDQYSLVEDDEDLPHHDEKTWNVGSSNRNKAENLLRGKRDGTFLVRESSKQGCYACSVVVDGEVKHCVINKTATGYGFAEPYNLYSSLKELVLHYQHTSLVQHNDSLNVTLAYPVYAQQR

[5] = target: BLK (Homo sapiens) (UniProt P51451); details: cited from earlier work
[6] = target: ITK (Homo sapiens) (UniProt Q08881); details: cited from earlier work
Sequence of ITK (Homo sapiens) (Q08881 234-343): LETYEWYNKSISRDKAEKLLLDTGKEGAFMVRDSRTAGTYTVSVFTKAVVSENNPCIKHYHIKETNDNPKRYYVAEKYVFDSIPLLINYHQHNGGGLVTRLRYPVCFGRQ

[7] = target: ABL2 (Homo sapiens) (UniProt P42684); details: cited from earlier work
Sequence of ABL2 (Homo sapiens) (P42684 168-268): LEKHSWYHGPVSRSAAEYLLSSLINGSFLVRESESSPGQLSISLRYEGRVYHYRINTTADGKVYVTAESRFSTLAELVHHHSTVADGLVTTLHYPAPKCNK

[8] = target: CRK (Homo sapiens) (UniProt P46108); details: cited from earlier work
[9] = target: PLCG2-NC (Homo sapiens) (UniProt P16885); details: cited from earlier work
[10] = target: PIK3R3-NC (Homo sapiens) (UniProt Q92569); details: cited from earlier work
[11] = target: PIK3R3-NC (Homo sapiens) (UniProt Q92569); details: cited from earlier work; remark: listed apart in the source
[12] = target: LYN (Homo sapiens) (UniProt P07948); details: cited from earlier work
Sequence of LYN (Homo sapiens) (P07948 124-231): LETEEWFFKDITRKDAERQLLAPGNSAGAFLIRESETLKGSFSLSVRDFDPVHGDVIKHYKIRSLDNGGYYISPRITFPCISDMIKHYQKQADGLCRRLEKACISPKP

[13] = target: FGR (Homo sapiens) (UniProt P09769); details: cited from earlier work
[14] = target: RASA1-N (Homo sapiens) (UniProt P20936); details: cited from earlier work
Sequence of RASA1-N (Homo sapiens) (P20936 176-446): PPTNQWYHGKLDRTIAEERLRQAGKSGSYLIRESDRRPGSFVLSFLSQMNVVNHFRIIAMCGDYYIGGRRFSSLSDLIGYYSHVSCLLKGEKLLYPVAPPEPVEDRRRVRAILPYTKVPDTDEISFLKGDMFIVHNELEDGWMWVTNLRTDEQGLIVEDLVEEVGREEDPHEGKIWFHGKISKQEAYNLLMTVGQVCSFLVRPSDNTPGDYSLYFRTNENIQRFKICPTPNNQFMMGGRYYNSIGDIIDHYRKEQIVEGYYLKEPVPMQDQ

[15] = target: GRB2 (Homo sapiens) (UniProt P62993); details: cited from earlier work
Sequence of GRB2 (Homo sapiens) (P62993 55-157): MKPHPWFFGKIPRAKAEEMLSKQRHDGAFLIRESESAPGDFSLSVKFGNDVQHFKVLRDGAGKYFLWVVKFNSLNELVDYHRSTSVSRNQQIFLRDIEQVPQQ

[16] = target: PIK3R1-NC (Homo sapiens) (UniProt P27986); details: cited from earlier work
[17] = target: SHC3 (Homo sapiens) (UniProt Q92529); details: cited from earlier work
[18] = target: SHC1 (Homo sapiens) (UniProt P29353); details: cited from earlier work
[19] = target: SRC (Homo sapiens) (UniProt P12931); details: cited from earlier work
[20] = target: SHC1-PTB (Homo sapiens) (UniProt P29353); details: cited from earlier work
Sequence of SHC1-PTB (Homo sapiens) (P29353 483-583): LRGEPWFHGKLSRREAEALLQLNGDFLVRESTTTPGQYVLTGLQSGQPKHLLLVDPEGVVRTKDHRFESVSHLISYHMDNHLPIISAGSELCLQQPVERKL

[21] = target: SHC1-PTB (Homo sapiens) (UniProt P29353); details: cited from earlier work; remark: listed apart in the source
[22] = target: YES1 (Homo sapiens) (UniProt P07947); details: cited from earlier work
Sequence of YES1 (Homo sapiens) (P07947 153-260): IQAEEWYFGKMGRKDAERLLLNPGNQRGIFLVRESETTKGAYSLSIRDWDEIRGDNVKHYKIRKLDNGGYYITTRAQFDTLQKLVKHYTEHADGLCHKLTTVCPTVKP

[23] = target: CRKL (Homo sapiens) (UniProt P46109); details: cited from earlier work
Sequence of CRKL (Homo sapiens) (P46109 9-107): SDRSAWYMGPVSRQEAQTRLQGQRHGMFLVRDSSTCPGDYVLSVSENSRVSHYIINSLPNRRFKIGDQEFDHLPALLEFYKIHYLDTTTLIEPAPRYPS

[24] = target: TEC (Homo sapiens) (UniProt P42680); details: cited from earlier work
[25] = target: RASA1-NC (Homo sapiens) (UniProt P20936); details: cited from earlier work
Sequence of RASA1-NC (Homo sapiens) (P20936 176-446): as the sequence (P20936 176-446) above

[26] = target: PIK3R2-N (Homo sapiens) (UniProt O00459); details: cited from earlier work
Sequence of PIK3R2-N (Homo sapiens) (O00459 325-721): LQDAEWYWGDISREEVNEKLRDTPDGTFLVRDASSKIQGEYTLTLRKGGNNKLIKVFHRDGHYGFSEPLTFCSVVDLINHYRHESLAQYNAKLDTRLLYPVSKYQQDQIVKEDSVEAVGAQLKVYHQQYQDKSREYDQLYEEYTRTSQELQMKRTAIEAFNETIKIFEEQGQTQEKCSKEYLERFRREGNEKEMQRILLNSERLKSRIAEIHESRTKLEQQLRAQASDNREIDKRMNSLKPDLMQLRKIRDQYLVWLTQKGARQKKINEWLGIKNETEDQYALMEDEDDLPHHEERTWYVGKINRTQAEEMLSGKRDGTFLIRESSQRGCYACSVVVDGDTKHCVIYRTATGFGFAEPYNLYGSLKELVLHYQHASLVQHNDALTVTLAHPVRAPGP

[27] = target: ErbB3-pY1197 phosphopeptide, rhodamine-labelled (human); assay: fluorescence polarisation; saturation binding in solution; rhodamine-labeled peptide fixed at 10 nM, protein titrated 0.002-10 µM (twelve two-fold dilutions); 20 minutes at room temperature in the dark; assay buffer 20 mM HEPES, 100 mM KCl, 0.1% Tween-20, 5 mM DTT, pH 7.8; apparent KD; assay detection threshold of 20 µM
[28] = target: ErbB3-pY1260 phosphopeptide, rhodamine-labelled (human); assay: as above
[29] = target: ABL2 SH2 domain (human) (UniProt P42684); assay: peptide or protein array; SH2/PTB proteins spotted on aldehyde slides, rhodamine peptide titrated in buffer B (20 mM HEPES, 100 mM KCl, 0.1% Tween-20, 5 mM DTT, pH 7.8), 1 h at room temperature; replicate assays
Sequence of ABL2 SH2 domain (human) (P42684 173-263): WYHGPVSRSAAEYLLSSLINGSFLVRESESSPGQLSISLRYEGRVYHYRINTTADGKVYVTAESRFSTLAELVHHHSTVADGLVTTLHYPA

[30] = target: HSH2D SH2 domain (human) (UniProt Q96JZ2); assay: as above
Sequence of HSH2D SH2 domain (human) (Q96JZ2 34-125): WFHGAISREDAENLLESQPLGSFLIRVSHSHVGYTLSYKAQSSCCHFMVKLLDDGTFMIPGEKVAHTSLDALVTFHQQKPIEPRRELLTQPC

[31] = target: ITK SH2 domain (human) (UniProt Q08881); assay: as above
[32] = target: NCK2 SH2 domain (human) (UniProt O43639); assay: as above
Sequence of NCK2 SH2 domain (human) (O43639 285-380): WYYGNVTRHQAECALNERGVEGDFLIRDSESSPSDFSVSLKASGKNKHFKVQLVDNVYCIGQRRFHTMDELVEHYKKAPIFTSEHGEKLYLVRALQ

[33] = target: PIK3R1 tandem SH2 domains (human) (UniProt P27986); assay: as above
Sequence of PIK3R1 tandem SH2 domains (human) (P27986 whole entry, the tested form may be a part): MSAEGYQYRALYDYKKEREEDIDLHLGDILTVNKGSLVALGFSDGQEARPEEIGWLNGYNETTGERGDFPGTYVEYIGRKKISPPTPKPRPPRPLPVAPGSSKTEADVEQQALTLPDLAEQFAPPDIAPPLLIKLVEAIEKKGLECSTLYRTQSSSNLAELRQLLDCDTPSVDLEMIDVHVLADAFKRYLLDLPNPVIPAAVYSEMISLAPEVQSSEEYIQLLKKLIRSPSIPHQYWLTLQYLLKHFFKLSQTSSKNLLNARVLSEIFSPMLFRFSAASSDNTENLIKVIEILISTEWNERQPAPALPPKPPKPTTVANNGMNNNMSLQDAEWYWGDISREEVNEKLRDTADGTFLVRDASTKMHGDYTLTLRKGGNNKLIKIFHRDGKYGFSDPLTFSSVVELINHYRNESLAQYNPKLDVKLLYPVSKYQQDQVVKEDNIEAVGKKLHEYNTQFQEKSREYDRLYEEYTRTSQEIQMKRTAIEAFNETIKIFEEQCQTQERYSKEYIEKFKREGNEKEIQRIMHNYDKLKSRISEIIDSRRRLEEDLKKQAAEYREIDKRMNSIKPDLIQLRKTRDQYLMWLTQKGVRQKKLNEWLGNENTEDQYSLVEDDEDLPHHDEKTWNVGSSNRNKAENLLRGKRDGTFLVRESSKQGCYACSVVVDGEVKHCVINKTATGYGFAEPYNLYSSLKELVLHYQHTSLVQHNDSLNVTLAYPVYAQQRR

[34] = target: PIK3R2 tandem SH2 domains (human) (UniProt O00459); assay: as above
Sequence of PIK3R2 tandem SH2 domains (human) (O00459 whole entry, the tested form may be a part): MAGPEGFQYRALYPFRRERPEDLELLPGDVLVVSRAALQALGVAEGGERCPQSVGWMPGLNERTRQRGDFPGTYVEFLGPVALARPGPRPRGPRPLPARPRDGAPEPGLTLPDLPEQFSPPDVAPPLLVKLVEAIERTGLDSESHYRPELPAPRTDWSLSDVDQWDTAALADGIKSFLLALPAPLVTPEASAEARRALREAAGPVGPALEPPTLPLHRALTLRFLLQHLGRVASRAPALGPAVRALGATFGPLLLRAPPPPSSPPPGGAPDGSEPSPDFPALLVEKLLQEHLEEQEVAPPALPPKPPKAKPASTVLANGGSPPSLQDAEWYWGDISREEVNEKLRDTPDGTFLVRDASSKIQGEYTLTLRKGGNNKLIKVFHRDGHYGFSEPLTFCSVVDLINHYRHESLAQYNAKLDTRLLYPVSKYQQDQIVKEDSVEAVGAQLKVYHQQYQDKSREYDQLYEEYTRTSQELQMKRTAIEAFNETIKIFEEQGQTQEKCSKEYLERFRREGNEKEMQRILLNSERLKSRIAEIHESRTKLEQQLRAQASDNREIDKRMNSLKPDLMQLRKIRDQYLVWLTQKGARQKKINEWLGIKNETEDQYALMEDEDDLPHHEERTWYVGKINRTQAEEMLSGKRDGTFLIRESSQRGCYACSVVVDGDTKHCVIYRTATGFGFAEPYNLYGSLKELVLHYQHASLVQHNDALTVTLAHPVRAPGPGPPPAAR

[35] = target: PIK3R3 tandem SH2 domains (human); assay: as above
[36] = target: PLCG1 C-terminal SH2 domain (human); assay: as above
[37] = target: PLCG2 tandem SH2 domains (human); assay: as above
[38] = target: RASA1 N-terminal SH2 domain (human) (UniProt P20936); assay: as above
[39] = target: RASA1 tandem SH2 domains (human); assay: as above
[40] = target: SH2D1A SH2 domain (human) (UniProt O60880); assay: as above
[41] = target: SH2D3A SH2 domain (human) (UniProt Q9BRG2); assay: as above
[42] = target: SHF SH2 domain (human) (UniProt Q7M4L6); assay: as above
Sequence of SHF SH2 domain (human) (Q7M4L6 323-418): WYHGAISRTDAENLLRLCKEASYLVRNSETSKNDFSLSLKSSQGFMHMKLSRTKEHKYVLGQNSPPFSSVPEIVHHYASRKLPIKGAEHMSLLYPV

[43] = target: SRC SH2 domain (human) (UniProt P12931); assay: as above
[44] = target: VAV2 SH2 domain (human) (UniProt P52735); assay: as above
Sequence of VAV2 SH2 domain (human) (P52735 673-767): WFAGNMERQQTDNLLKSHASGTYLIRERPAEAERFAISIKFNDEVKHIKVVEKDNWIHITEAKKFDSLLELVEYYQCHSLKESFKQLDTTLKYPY

Sequence of GRB7 SH2 domain (Q14451 431-527): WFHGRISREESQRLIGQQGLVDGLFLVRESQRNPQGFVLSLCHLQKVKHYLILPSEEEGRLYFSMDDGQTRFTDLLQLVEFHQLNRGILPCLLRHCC

…pYLRVAPQSd
apparent Kd (screen) [1]: 0.294 µM
apparent Kd (screen) [2]: 0.38 µM
apparent Kd (screen) [3]: 0.5 µM
apparent Kd (screen) [4]: 0.5 µM
apparent Kd (screen) [5]: 0.5 µM
apparent Kd (screen) [6]: 0.5 µM
apparent Kd (screen) [7]: 0.214 µM
apparent Kd (screen) [8]: 1.07 µM
apparent Kd (screen) [9]: 0.5 µM
apparent Kd (screen) [10]: 1.11 µM
apparent Kd (screen) [11]: 0.805 µM
apparent Kd (screen) [12]: 0.171 µM
apparent Kd (screen) [13]: 0.618 µM
apparent Kd (screen) [14]: 0.708 µM
apparent Kd (screen) [15]: 0.415 µM
apparent Kd (screen) [16]: 0.5 µM
apparent Kd (screen) [17]: 1.03 µM
apparent Kd (screen) [18]: 0.777 µM
apparent Kd (screen) [19]: 0.381 µM
apparent Kd (screen) [20]: 0.317 µM
apparent Kd (screen) [21]: 0.337 µM
apparent Kd (screen) [22]: 0.127 µM
apparent Kd (screen) [23]: 1.34 µM
apparent Kd (screen) [24]: 0.48 µM
apparent Kd (screen) [25]: 0.5 µM
apparent Kd (screen) [26]: 0.5 µM

GRB7 SH2 domain (from UniProt Q14451 431-527) (domain or fragment)
Kd [27]: < 0.1 µM
Kd [28]: < 0.1 µM

ErbB4 pY1202 phosphopeptide (18-mer), rhodamine-labelled, for protein microarrays
Kd [29]: 0.997 µM and 0.965 µM
Kd [30]: 0.967 µM
Kd [31]: 0.723 µM
Kd [32]: 10.1 µM
Kd [33]: 0.167 µM and 0.544 µM
Kd [34]: 0.653 µM
Kd [35]: 1.72 µM and 1.18 µM
Kd [36]: 1.26 µM
Kd [37]: 0.408 µM and 0.605 µM and 1.53 µM
Kd [38]: 0.662 µM
Kd [39]: 8.55 µM
Kd [40]: 30.9 µM
Kd [41]: 1 µM
Kd [42]: 11.9 µM
Kd [43]: 0.399 µM
Kd [44]: 9.5 µM
